According to US8163734B2, “Use of a mast cell activation or degranulation blocking agent in the manufacture of a medicament for the treatment of a patient subjected to thrombolyses” (priority 2004, dated 2012):
“Also recorded” adds a separate entry of the source.

Legend:
[1] = tested on: rat peritoneal mast cells; test: Degranulation of rat peritoneal mast cells ex vivo; assay type: cell-based
[2] = tested on: middle cerebral artery occlusion (MCAO) in rats; test: 90 min middle cerebral artery occlusion with r-TPA 10 mg/kg infusion; brains dissected 4.5 h after reperfusion (Example 2); assay type: in vivo, rat
Method: Rats were given 10 mg/kg of r-TPA, which is considered equivalent to the typical dose given to humans in thrombolysis in stroke and myocardial infarction. Two timings of r-TPA were used to investigate in rat brain the hemorrhagic conversion of infarction, the single most serious complication and hazard in clinical thrombolytic therapy. The group termed r-TPA+saline received 1-hour infusiuon of r-TPA starting 5 minutes (10% as bolus) prior to reperfusion after 90 min of middle cerebral artery occlusion (MCAO), whereas the group saline+r-TPA received r-TPA starting 1 hour after the reperfusion after 90 min of MCAO. […] Brains were dissected at 4.5 hours after reperfusion. Areas of hemorrhage were measured by microscopical image analysis on six histological sections cut through the hemispheres and added together (cf. FIG. 3)
The polymorphonuclear leukocytes (neutrophils, shown in bars, left Y-axis, of FIG. 4) were calculated on the section encompassing the basal ganglia, infarct core and penumbra.
They were also treated with 10 mg/kg of r-TPA in a 1-hour infusion starting […] (10% as bolus) before reperfusion, a dose equivalent to that used clinically in thrombolysis of human stroke and myocardial infarction. Brains were dissected at 4.5 hours after reperfusion. The amount of brain edema was measured by quantitating the areas of hemispheres on histological sections with microscopical image analysis.
In the lower panel, the total area of hemorrhagic conversion was quantitated in six sections cut through the hemispheres.

[3] = tested on: spontaneous intraventricular bleedings; settings: in vivo; cited from earlier work

r-TPA: alteplase (recombinant tissue plasminogen activator), a serine protease leading to plasmin formation
degranulation of rat peritoneal mast cells [1]: degranulated
neutrophil density ([2]; both r-TPA groups compared to sham-operated rats): significantly increased
hemorrhage formation in rat brain ([2]; r-TPA 10 mg/kg, started 5 min before or 1 hour after reperfusion, vs sham operated or saline-treated controls): substantial hemorrhage formation; also recorded: significant hemorrhage formation
increase in total number of neutrophils in the tissue, ischemic hemisphere ([2]; r-TPA infusion): up to 3 fold
increase in total number of neutrophils in the tissue, non-infarcted hemisphere ([2]; r-TPA infusion): up to 5 fold
degranulation of cells consistent with mast cell morphology, non-ischemic hemisphere ([2]; r-TPA infusion 5 minutes before reperfusion, 90 minute ischemia): up to 60%
degranulation of cells consistent with mast cell morphology, ischemic hemisphere ([2]; r-TPA infusion 5 minutes before reperfusion, 90 minute ischemia, up to 50% without r-TPA): up to 70%
rates of secondary brain hemorrhages [3]: more than doubles
